# Reference: patent US20230248800A1 (PHARMAIN, published 2023)
# B1: Mpa-Tyr-Phe-Hgn-Asn-Cys-Pro-Lys(X)a-Gly-NH2; (X)a = (Gly)9-Ac [SEQ ID NO. 26] (peptide)
# peptide: XFXNCPXG
# modifications: Mpa at position 1, disulfide bond between Mpa and Cys; Hgn at position 4; (Gly)9-Ac on the side chain of Lys 8; C-terminal amide
# B2: Mpa-Tyr-Phe-Hgn-Asn-Cys-Pro-Lys(X)a-Gly-NH2; (X)a = Lauric acid [SEQ ID NO. 27] (peptide)
# peptide: XFXNCPXG
# modifications: Mpa at position 1, disulfide bond between Mpa and Cys; Hgn at position 4; lauric acid on the side chain of Lys 8; C-terminal amide
# B3: Mpa-Tyr-Phe-Hgn-Asn-Cys-Pro-Lys(12-aminododecanoic acid)-Gly-NH2 [SEQ ID NO. 19] (peptide)
# peptide: XFXNCPXG
# modifications: Mpa at position 1, disulfide bond between Mpa and Cys; Hgn at position 4; 12-aminododecanoic acid on the side chain of Lys 8; C-terminal amide
# B4: Mpa-Tyr-Phe-Hgn-Asn-Cys-Pro-Lys(X)a-Gly-NH2; (X)a = Dap [SEQ ID NO. 29] (peptide)
# peptide: XFXNCPXG
# modifications: Mpa at position 1, disulfide bond between Mpa and Cys; Hgn at position 4; Dap on the side chain of Lys 8; C-terminal amide
# B5: Mpa-Tyr-Phe-Hgn-Asn-Cys-Pro-Lys-Gly-NH2 [SEQ ID NO. 25] (peptide)
# peptide: XFXNCPKG
# modifications: Mpa (mercaptopropionic acid) at position 1, disulfide bond between Mpa and Cys; Hgn (homoglutamine) at position 4; C-terminal amide
# B6: Mpa-Tyr-Phe-Hgn-Asn-Cys-Pro-Dap-Gly-NH2 [SEQ ID NO. 17] (peptide)
# peptide: XFXNCPXG
# modifications: Mpa at position 1, disulfide bond between Mpa and Cys; Hgn at position 4; Dap at position 8; C-terminal amide
# B7: Mpa-Tyr-Phe-Hgn-Asn-Cys-Pro-Lys(X)a-Gly-NH2; (X)a = Ac [SEQ ID NO. 28] (peptide)
# peptide: XFXNCPXG
# modifications: Mpa at position 1, disulfide bond between Mpa and Cys; Hgn at position 4; acetyl (Ac) on the side chain of Lys 8; C-terminal amide
# B8: Mpa-Tyr-Phe-Hgn-Asn-Cys-Pro-dLys-Gly-NH2 (note: dLys = D-Lys) [SEQ ID NO. 18] (peptide)
# peptide: XFXNCPKG
# modifications: Mpa at position 1, disulfide bond between Mpa and Cys; Hgn at position 4; D-Lys at position 8; C-terminal amide
# B9: Mpa-Tyr-Phe-Gln-Asn-Cys-Pro-Lys(X)a-Gly-NH2; (X)a = (Gly)6 [SEQ ID NO. 20] (peptide)
# peptide: XFQNCPXG
# modifications: Mpa at position 1, disulfide bond between Mpa and Cys; (Gly)6 on the side chain of Lys 8; C-terminal amide
# B10: Mpa-Tyr-Phe-Gln-Asn-Cys-Pro-Lys(X)a-Gly-NH2; (X)a = (Gly)9 [SEQ ID NO. 23] (peptide)
# peptide: XFQNCPXG
# modifications: Mpa at position 1, disulfide bond between Mpa and Cys; (Gly)9 on the side chain of Lys 8; C-terminal amide
# Molecular target: T1, human V1a receptor (human, UniProt P37288 1-418)
# T1 sequence (P37288 whole entry): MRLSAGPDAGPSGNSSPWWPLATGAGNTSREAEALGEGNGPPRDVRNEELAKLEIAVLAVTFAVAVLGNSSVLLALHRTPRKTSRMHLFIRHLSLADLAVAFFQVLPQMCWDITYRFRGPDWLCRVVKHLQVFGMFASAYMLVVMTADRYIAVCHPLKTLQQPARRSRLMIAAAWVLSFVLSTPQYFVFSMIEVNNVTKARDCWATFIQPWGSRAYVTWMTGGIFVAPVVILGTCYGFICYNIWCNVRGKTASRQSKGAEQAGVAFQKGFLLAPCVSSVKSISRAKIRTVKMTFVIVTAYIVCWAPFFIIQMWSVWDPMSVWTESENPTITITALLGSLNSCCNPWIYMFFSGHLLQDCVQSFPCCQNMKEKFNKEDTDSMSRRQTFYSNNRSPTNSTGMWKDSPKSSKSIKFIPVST
# Experiment: cell-based or functional assay
Binder,Estimated V1a EC50 (calcium flux),V1a Highest agonist effect (% of AVP)
B1,> 10000 nM,40 % of AVP
B2,> 10000 nM,
B3,> 10000 nM,2.5 % of AVP
B4,1340 nM,7.5 % of AVP
B5,5.2 nM,42.8 % of AVP
B6,> 10000 nM,3.5 % of AVP
B7,> 10000 nM,30 % of AVP
B8,> 10000 nM,0.2 % of AVP

# Molecular target: T1, human V1a receptor
# Experiment: cell-based or functional assay
# Remark: another data set of the same source
row,Binder,Estimated V1a EC50 (calcium flux)
1,B9,27.3 nM
2,B10,12.6 nM
